{
  "source": "patent US20260265392A1",
  "about": "(TSINGHUA UNIVERSITY, published 2026)",
  "key": {"[1]": {"molecular_target": "T1, CXC motif chemokine receptor 4 (CXCR4) (human, UniProt P61073 1-352)", "T1 construct": "whole, on cells; In the assays CXCR4 is the endogenous receptor of human cells; also called chemokine receptor CXCR4; endogenous CXCR4", "T1 sequence (P61073 whole entry, the tested form may be a part)": "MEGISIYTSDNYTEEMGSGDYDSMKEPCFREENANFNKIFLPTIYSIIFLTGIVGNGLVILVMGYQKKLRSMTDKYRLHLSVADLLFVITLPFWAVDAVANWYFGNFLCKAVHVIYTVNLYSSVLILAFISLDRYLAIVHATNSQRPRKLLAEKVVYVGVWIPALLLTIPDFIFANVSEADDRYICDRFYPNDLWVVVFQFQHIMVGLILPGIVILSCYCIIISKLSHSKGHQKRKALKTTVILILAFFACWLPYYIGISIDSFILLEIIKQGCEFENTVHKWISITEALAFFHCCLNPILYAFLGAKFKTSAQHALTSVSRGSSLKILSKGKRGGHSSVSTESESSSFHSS", "test": "laser confocal imaging of SJSA-1 cells: membrane puncta only with ligand-fused domains; the receptor was not stained in this example", "procedure": "(§1) Human osteosarcoma SJSA-1 cells (purchased from ATCC (https://www.atcc.org/)) were treated with the above-labeled recombinant proteins or control solution, and then immediately subjected to laser confocal scanning microscopy imaging. The steps are as follows:\n(§2) Human osteosarcoma cell line SJSA-1 was cultured in RMPI-1640 medium containing 10% fetal bovine serum (FBS, purchased from Gibco) and 1× penicillin-streptomycin (purchased from HyClone) to 70%-80% confluence. The following combinations of recombinant proteins were added to the culture medium at the same time: (1) (SIM)₆-R4L (Red) and (SUM)₅ (Green), (2) (SIM)₆ (Red) and (SUM)₅-TRAIL (Green), (3) (SIM)₆-R4L (Red) and (SUM)₅-TRAIL (Green), (4) (SIM)₆ (Red) and (SUM)₅ (Green), to a final concentration of 100 nM respectively. The culture medium after adding the recombinant protein was mixed, incubated at 37° C. for about 1 min, and then imaged using a NIKON AIR HD25 laser confocal microscope (purchased from Nikon, Inc.)."}, "[2]": {"molecular_target": "T2, multivalent domain (SUM)5 (Alexa647 label in the imaging experiment (site not stated))", "T2 construct": "also called (SUM)5 (Green)", "T2 sequence (chain, as listed by the source)": "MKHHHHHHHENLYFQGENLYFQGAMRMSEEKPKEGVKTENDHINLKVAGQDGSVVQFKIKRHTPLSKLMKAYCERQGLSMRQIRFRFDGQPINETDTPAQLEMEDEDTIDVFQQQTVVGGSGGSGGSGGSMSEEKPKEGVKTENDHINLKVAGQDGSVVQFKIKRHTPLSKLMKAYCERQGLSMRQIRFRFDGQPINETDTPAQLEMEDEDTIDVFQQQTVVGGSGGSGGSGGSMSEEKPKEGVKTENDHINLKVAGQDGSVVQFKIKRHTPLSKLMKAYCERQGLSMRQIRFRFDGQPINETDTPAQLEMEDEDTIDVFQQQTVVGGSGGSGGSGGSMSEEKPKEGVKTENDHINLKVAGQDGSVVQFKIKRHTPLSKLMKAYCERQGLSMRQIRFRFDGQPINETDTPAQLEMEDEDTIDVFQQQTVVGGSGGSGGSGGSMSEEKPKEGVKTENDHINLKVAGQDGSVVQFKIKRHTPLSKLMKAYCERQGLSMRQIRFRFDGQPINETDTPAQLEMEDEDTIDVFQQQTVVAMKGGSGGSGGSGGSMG", "test": "laser confocal imaging of SJSA-1 cells with (SIM)6-R4L (Red) and (SUM)5 (Green), 100 nM each (combination 1, FIG. 2A); co-localization", "procedure": "as §1, §2"}, "[3]": {"molecular_target": "T1, CXC motif chemokine receptor 4 (CXCR4)", "test": "immunofluorescence of endogenous CXCR4 on SJSA-1 cells with labelled fusion proteins; co-localization (FIG. 5A, 5B)", "from_the_text": "(§3) Wherein, “Anti-DR5” and “Anti-CXCR4” respectively represent the fluorescence images of endogenous DR5 and CXCR4 obtained by immunofluorescence staining with DR5 antibody (Abcam, Catalog No. ab8416) and CXCR4 antibody (Protein Tech, Catalog No. 60042-1-Ig). […] The horizontal axis represents the relative distance along the straight path, and the vertical axis represents the relative fluorescence intensity measured at the corresponding position. […] The horizontal axis represents various recombinant protein treatment combinations with a final concentration of 100 nM. The vertical axis represents the fluorescence area corresponding to each spot.\n(§4) The above recombinant protein combinations were added to the culture medium to a final concentration of 100 nM. The added culture medium was mixed, incubated at 37° C. for about 1 min, and then imaged by total internal reflection fluorescence microscopy (TIRF).\n(§5) By the same method as in Example 2, the total internal reflection fluorescence microscopy (TIRF) imaging of the following recombinant protein combination against the human osteosarcoma cell line SJSA-1 was measured, and the results are shown in FIG. 5: [0136] Treatment group: combination of (SIM)₃-CNB (Red) and (SUM)₃-DNB (Green) [0137] Control group: combination of (SIM)₃ (Red) and (SUM)₃ (Green)"}, "[4]": {"molecular_target": "T3, recombinant protein (SUM)3-DNB (Alexa647 label in the imaging experiment only (site not stated); no label is stated for the apoptosis assays)", "T3 construct": "Fusion of a multivalent domain with a nanobody; also called (SUM)3-DNB (Green); fusion protein (SUM)3-DNB", "T3 sequence (chain, as listed by the source)": "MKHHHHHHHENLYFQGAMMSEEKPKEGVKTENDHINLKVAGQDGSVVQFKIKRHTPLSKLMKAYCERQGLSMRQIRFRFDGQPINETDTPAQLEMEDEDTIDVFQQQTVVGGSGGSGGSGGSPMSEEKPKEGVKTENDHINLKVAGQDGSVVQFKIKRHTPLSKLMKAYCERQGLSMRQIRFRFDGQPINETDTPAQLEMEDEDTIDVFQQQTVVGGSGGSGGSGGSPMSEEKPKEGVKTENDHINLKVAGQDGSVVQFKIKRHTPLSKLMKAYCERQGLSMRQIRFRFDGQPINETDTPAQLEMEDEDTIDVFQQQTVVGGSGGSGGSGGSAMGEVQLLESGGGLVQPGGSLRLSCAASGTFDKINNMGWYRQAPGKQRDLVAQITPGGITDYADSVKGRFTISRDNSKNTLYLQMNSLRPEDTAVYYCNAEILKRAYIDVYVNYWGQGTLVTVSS", "test": "fluorescence imaging of SJSA-1 cells; co-localization (FIG. 5A, 5B)", "from_the_text": "as §3, §4, §5"}, "[5]": {"molecular_target": "T4, recombinant protein (SUM)5-DNB (Alexa647 label in the imaging experiment (site not stated))", "T4 construct": "Fusion of a multivalent domain with a nanobody; also called (SUM)5-DNB (Green)", "T4 sequence (chain, as listed by the source)": "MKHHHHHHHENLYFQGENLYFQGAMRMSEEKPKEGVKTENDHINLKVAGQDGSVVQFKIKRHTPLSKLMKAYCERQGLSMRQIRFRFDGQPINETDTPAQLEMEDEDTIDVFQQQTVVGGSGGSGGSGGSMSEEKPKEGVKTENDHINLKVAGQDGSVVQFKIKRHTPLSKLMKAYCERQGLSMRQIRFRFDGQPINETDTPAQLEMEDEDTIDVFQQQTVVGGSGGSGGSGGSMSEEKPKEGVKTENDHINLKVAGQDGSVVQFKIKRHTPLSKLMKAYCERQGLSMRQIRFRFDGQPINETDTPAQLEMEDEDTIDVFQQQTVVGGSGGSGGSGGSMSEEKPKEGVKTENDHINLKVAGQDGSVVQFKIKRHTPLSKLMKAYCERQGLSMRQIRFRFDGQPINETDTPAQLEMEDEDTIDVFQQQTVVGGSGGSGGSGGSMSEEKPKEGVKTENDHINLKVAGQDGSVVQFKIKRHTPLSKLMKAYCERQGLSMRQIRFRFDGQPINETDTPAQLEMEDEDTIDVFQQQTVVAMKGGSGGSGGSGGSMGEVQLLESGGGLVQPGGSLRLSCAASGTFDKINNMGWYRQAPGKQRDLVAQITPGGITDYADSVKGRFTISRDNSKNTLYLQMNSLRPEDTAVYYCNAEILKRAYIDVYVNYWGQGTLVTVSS", "test": "fluorescence imaging of SJSA-1 cells, 100 nM each; co-localization (FIG. 3A, 3B)", "from_the_text": "(§6) Wherein, “Anti DR5” and “Anti CXCR4” respectively represent the fluorescence images of endogenous DR5 and CXCR4 obtained by immunofluorescence staining with DR5 antibody (Abcam, ab8416) and CXCR4 antibody (Protein Tech, 60042-1-Ig). […] The horizontal axis represents the relative distance along the straight path, and the vertical axis represents the relative fluorescence intensity measured at the corresponding position. […] From left to right, they correspond to treatment groups 1 to 3 listed in Example 2. […] The horizontal axis represents various recombinant protein treatment combinations with a final concentration of 100 nM. The vertical axis represents the fluorescence area corresponding to each spot.\nas §4"}, "[6]": {"molecular_target": "T1, CXC motif chemokine receptor 4 (CXCR4)", "test": "immunofluorescence of endogenous CXCR4 on SJSA-1 cells with labelled fusion proteins; co-localization (FIG. 3A, 3B)", "from_the_text": "as §6, §4"}},
  "data": [
    {"binder": "recombinant protein (SIM)6-R4L (ligand, Alexa594 label in the imaging experiment (site not stated), also called (SIM)6-R4L (Red)) MKHHHHHHHENLYFQGAMSSKVDVIDLTIESSSDEEEDPPAKRGGSGGSGGSGGSKVDVIDLTIESSSDEEEDPPAKRGGSGGSGGSGGSKVDVIDLTIESSSDEEEDPPAKRGAMKGGSGGSGGSGGSMSSKVDVIDLTIESSSDEEEDPPAKRGGSVGSGGSGGSKVDVIDLTIESSSDEEEDPPAKRGGSGGSGGRGGSKVDVIDLTIESSSDEEEDPPAKRGAMRCWGGSGGSGGSGGSMGMCYRKCRGGRRWCYQKCGGSGGSGGSGGS", "values": [
      {"measurement": "binding result", "setting": "[1]", "value": "binds"},
      {"measurement": "binding result", "setting": "[2]", "value": "binds"}
    ]},
    {"binder": "recombinant protein (SIM)3-CNB (VHH, Alexa594 label in the imaging experiment (site not stated), Fusion of a multivalent domain with a nanobody; also called (SIM)3-CNB (Red); fusion protein (SIM)3-CNB) MKHHHHHHHENLYFQGAMKVDVIDLTIESSSDEEEDPPAKRGGSGGSGGSGGSMMKVDVIDLTIESSSDEEEDPPAKRGGSGGSGGSGGSMMKVDVIDLTIESSSDEEEDPPAKRGGSGGSGGSGGSMGEVQLMESGGGLVQAGGSLRLSCAASGRTFNNYAMGWFRRAPKGEREFVAAITRSGVRSGVSAIYGDSVKDRFTISRDNAKNTLYLQMNSLKPEDTAVYTCAASAIGSGALRRFEYDYSGQGTQVTVSS", "values": [
      {"measurement": "binding result", "setting": "[3]", "value": "binds"},
      {"measurement": "binding result", "setting": "[4]", "value": "binds"}
    ]},
    {"binder": "recombinant protein (SIM)6-CNB (VHH, Alexa594 label in the imaging experiment (site not stated), Fusion of a multivalent domain with a nanobody; also called (SIM)6-CNB (Red)) MKHHHHHHHENLYFQGAMSSKVDVIDLTIESSSDEEEDPPAKRGGSGGSGGSGGSKVDVIDLTIESSSDEEEDPPAKRGGSGGSGGSGGSKVDVIDLTIESSSDEEEDPPAKRGAMKGGSGGSGGSGGSMSSKVDVIDLTIESSSDEEEDPPAKRGGSVGSGGSGGSKVDVIDLTIESSSDEEEDPPAKRGGSGGSGGRGGSKVDVIDLTIESSSDEEEDPPAKRGAMRCWGGSGGSGGSGGSMGEVQLMESGGGLVQAGGSLRLSCAASGRTFNNYAMGWFRRAPKGEREFVAAITRSGVRSGVSAIYGDSVKDRFTISRDNAKNTLYLQMNSLKPEDTAVYTCAASAIGSGALRRFEYDYSGQGTQVTVSS", "values": [
      {"measurement": "binding result", "setting": "[5]", "value": "binds"},
      {"measurement": "binding result", "setting": "[6]", "value": "binds"}
    ]}
  ]
}
